Assay [1] deals with γ2-GABAA subunit fused with a superecliptic pHluorin (SEP) tag (UniProt P18508).
Assay [2] shares this target. The source holds these as a separate data set.
The target is the same in assay [3]. This is another data set of the same source.
In assay [4] the target is γ2-GABAA receptor (endogenous) (rat (endogenous in hippocampal neurons)) (UniProt P18508).

Take “dopamine D5 receptor (endogenous) (from UniProt P25115 1-475)”: in assay [1], the diffusion coefficient median of SEP-γ2-GABAARs at inhibitory synaptic sites with the disrupting peptide TATD5Ct (10 µM); control 1.81 10^−2 µm^2/s was found to be 0.0578 µm^2/s; the explored area of SEP-γ2-GABAARs at inhibitory synapses with the disrupting peptide TATD5Ct (10 µM); control 0.30 10^−2 was determined as 0.0133 µm^2/s; the immobile fraction (D < 0.005 µm^2/s) of SEP-γ2-GABAARs at inhibitory synapses, single nanoparticle tracking, after the disrupting peptide TATD5Ct (10 µM, 10 min); control 33% was found to be 9%. Moreover, in assay [2], the diffusion coefficient median of SEP-γ2-GABAARs at excitatory synapses with the disrupting peptide TATD5Ct (10 µM); control 3.15 10^−2 µm^2/s; no change (p = 0.13) is 0.0412 µm^2/s, the explored area of SEP-γ2-GABAARs at excitatory synapses with the disrupting peptide TATD5Ct (10 µM); control 0.60 10^−2 µm^2; unchanged (p = 0.097) stood at 0.0073 µm^2 and the immobile fraction of SEP-γ2-GABAARs at excitatory synapses with the disrupting peptide TATD5Ct (10 µM); no change is 20%. In assay [3], the diffusion coefficient median of extrasynaptic SEP-γ2-GABAARs after incubation with the disrupting peptide TATD5Ct (10 µM); control 4.11 10^−2 µm^2/s worked out at 0.075 µm^2/s, the explored area of extrasynaptic SEP-γ2-GABAARs with the disrupting peptide TATD5Ct (10 µM); control 1.24 10^−2 µm^2 worked out at 0.0245 µm^2 and the immobile fraction of extrasynaptic SEP-γ2-GABAARs with the disrupting peptide TATD5Ct (10 µM); control 25% is 17%.
On to “dopamine D5 receptor fused to the yellow fluorescent protein (YFP) (from UniProt P25115 1-475)”, for which, in assay [4], the diffusion coefficient median of extrasynaptic D5Rs (D5R–YFP) after incubation with the disrupting peptide TATD5Ct (10 µM); control 7.42 10^−2 µm^2/s amounted to 0.103 µm^2/s; the explored area of extrasynaptic D5Rs (D5R–YFP) with the disrupting peptide TATD5Ct (10 µM); control 2.37 10^−2 µm^2 came out at 0.0345 µm^2; the immobile fraction of extrasynaptic D5Rs (D5R–YFP, single nanoparticle tracking) with the disrupting peptide TATD5Ct (10 µM); not changed stood at 15%.
